Source: the DeepSol protein solubility set

Experiment: soluble on expression in E. coli; label from the status in PepcDB or PDB records

Row | Sequence | soluble on expression in E. coli
1 | MEKPGHETDIAGSRRTHLKKSFKSTLRHLLTACSKQVVVNLHQTIEEEFDEQCHETQVGPILDTVEELVEEQSLDPLFSDKTDVMAIAYDLTTSKKNEIQKLTVLLQRAEEQNRQKEARISMLKKQTQDLSGTADRIEKLNAGVSGYFEGKDKLPPI | soluble
2 | MCIGVPGQVLAVGEDIHQLAQVEVCGIKRDVNIALICEGNPADLLGQWVLVHVGFAMSIIDEDEAKATLDALRQMDYDITSA | not soluble
3 | MKGFIDDANYSVGLLDEGTNLGNVIDNYVYEHTLTGKNAFFVGDLGKIVKKHSQWQTVVAQIKPFYTVKCNSTPAVLEILAALGTGFACSSKNEMALVQELGVSPENIIFTSPCKQVSQIKYAAKVGVNIMTCDNEIELKKIARNHPNAKVLLHIATEDNIGGEDGNMKFGTTLKNCRHLLECAKELDVQIIGVKFHVSSACKEYQVYVHALSDARCVFDMAGEFGFTMNMLDIGGGFTGTEIQLEEVNHVISPLLDIYFPEGSGIQIISEPGSYYVSSAFTLAVNIIAKKVVENDKFSSGVEKNGSDEPAFVYYMNDGVYGSFASKLSEDLNTIPEVHKKYKEDEPLFTSSLWGPSCDELDQIVESCLLPELNVGDWLIFDNMGADSFHEPSAFNDFQRPAIYFMMSFSDWYEMQDAGITSDAMMKNFFFAPSCIQLSQEDSFSTEA | soluble
4 | MGSDKIHHHHHHMLEELSENVWIAEGTCVSFHGFHGFHGFHGFHGFHGFQYPTRSVVVRLKSGAMWVWSPVKFDQDLADEIESLGTITHLVSPNKIHHLFLADWSSHVPTAKIWGPRSTVNKRRDLVFQPALDHLPPRDWAEDFEQFHVKGSLAMDEILFLHKQSNTLILADFSEHFSDQFLQRHWQPWQRRIGQFWGITEGRGFAPLDWRLSFLNRSHLRTLKQQLLDRQVDHVVMAHGEIARTDGHRFLQRSLAWI | not soluble
5 | MMFDRRFFALVVLLCVSAVRSTEDASDDELNYEMDEGVVVLTDKNFDAFLKKNPSVLVKFYAPWCGHCKHLAPEYEKASSKVSIPLAKVDATVETELGKRFEIQGYPTLKFWKDGKGPNDYDGGRDEAGIVEWVESRVDPNYKPPPEEVVTLTTENFDDFISNNELVLVEFYAPWCGHCKKLAPEYEKAAQKLKAQGSKVKLGKVDATIEKDLGTKYGVSGYPTMKIIRNGRRFDYNGPREAAGIIKYMTDQSKPAAKKLPKLKDVERFMSKDDVTIIGFFATEDSTAFEAFSDSAEMLREEFKTMGHTSDPAAFKKWDAKPNDIIIFYPSLFHSKFEPKSRTYNKAAATSEDLLAFFREHSAPLVGKMTKKNAATRYTKKPLVVVYYNADFSVQYREGSEYWRSKVLNIAQKYQKDKYKFAVADEEEFAKELEELGLGDSGLEHNVVVFGYDGKKYPMNPDEFDGELDENLEAFMKQISSGKAKAHVKSAPAPKDDKGPVKTVVGSNFDKIVNDESKDVLIEFYAPWCGHCKSFESKYVELAQALKKTQPNVVLAKMDATINDAPSQFAVEGFPTIYFAPAGKKSEPIKYSGNRDLEDLKKFMTKHGVKSFQKKDEL | not soluble
6 | MSRFLISSFILIAFVLQFGEGSIAVQEVKDGEKVQIELFKGAKAIQRSVDAGEQIFHFEGENKGVFVDANGKAIDSSNYEENNGHLVIKKFTKADVGSYSEYPTKIIKTKTDHGFSGVAAPVLKLSLQ | soluble
7 | MKVELTAIEARVIGCLIEKEVTTPDQYPLSLNALTNASNQKSNREPVMALSESDVLDAVDALIERRLVSDESAFNSRVSKYQHRFCNTEFGDLKLSEQEKGIICCMLLRGAQTPGEIRTRTNRLATFHDVKEVEAVLEHLASEEKGPLVVKLPREAGKRESRYMHLFCGEVDVSAMAAAVPATSSSSVRIAQLEQEVAELREELDALKAQVESLLS | not soluble
8 | MGSDKIHHHHHHMQNIVDNTLLLSYLNNEYIKKLFQQFNHPFKILRYEAKETVLHEGEMIDGLYIQMSGRTKITSSVITGKALLLRFCSAVSIMGDIELIQSVNIQSHVTSEQQTDFLFIDKNYVTSYLLQDVIFLQELIHHVTYKLQTCTTASRINLLASVETRFASYLCTARNPSNLFGREIHTKDHHEIASLIGTTTRHLNRVIEKLIANNIMHKNNKQIVVDDWKAIDTLSNGLRYE | not soluble
9 | MDKVKAARSLIQEALAQSQNPCFTCSFQAEDVVVLHLLLKERPEIPVLFLDTGYHFPEVYAYRDELQKRLGFRLVNLTPALSREEQERLYGKLYETDPGRCCALRKVEPLFAALEAHDTWFTGLRREQSPTRRNLEPQEEARLPSGHRLKKVNPLYDWTLKEVFAYLAVEDLPYLPLYDQGYLSIGCAPCTAKPLDPSDPRSGRWAGKGKLECGIHLHGKEG | soluble
10 | MSLRSELPEGFFGPREWARLNAVADIIPGFPHTDFDTANGAEALAEADILLAAWGTPSLTRERLSRAPRLKMLAYAASSVRMVAPAEFWETSDILVTTAASAMAVPVAEFTYAAIIMCGKDVFRLRDEHRTERGTGVFGSRRGRSLPYLGNHARKVGIVGASRIGRLVMEMLARGTFEIAVYDPFLSAEEAASLGAKKAELDELLAWSDVVSLHAPILPETHHMIGARELALMADHAIFINTARGWLVDHDALLTEAISGRLRILIDTPEPEPLPTDSPFYDLPNVVLTPHIAGALGNELRALSDLAITEIERFVAGLAPLHPVHKQDMERMAEGHHHHHH | soluble
11 | MGKLIDIPIVVESGQKYKTSQGVTAIKDGIKSSGQDHERLPKPKWLRIVNHTTPAYSQVKEQVQKHRLATVCEEAKCPNISECWSHGTATIMLMGAVCTRACRFCSVDTGNPHGWLDAEEPENTAETVALMNLDYVVLTSVNRDDLPDGGANHYAKTIRAIKKRSPRTKVEALTPDFQGSERDVAVLLDSGVDVFAQNVETVERLTHPVRDNRAGYQQTLNVLAFAKKYRPDVLTKTSLMLGLGETDEEIIQTMDDLRTHHVDILTLGQYLQPTKNHLPIARYVTPETFSELRQIGLKKGFFEVASGPLVRSSYRADRVFKRDNLGLDV | not soluble
12 | QVQLQQSGPELVRPGVSVKISCKGSGYTFIDEALHWVKQSHAESLEWIGVIRPYSGETNYNQKFKDKATMTVDISSSTAYLELARLTSEDSAIYYCARDWERGDFFDYWGQGTLVTVSSASTKGPSVFPLAPSSKSTSGGTAALGCLVKDYFPEPVTVSWNSGALTSGVHTFPAVLQSSGLYSLSSVVTVPSSSLGTQTYICNVNHKPSNTKVDKKVEPKSCD | soluble
13 | MAHHHHHHMSSSAEEKEAKKQEELRLAGSDSEGVRAAVKAQRELKKKRDALRKVQKKIRSGGSDAEVAAAIEQEAALLAEIGHLEALRGASSAPSTAHVAAASFTSTPATAAASPGALVTVATNKSSGAKAARSGEPAKEITAEERAASAKRLHDLVQGAMDANRLKCLHVLPRDAVVHPRIAEVAVLMEQMLLVGGSARALALISAFRELSRTTTVLAVPSLNEVNTTAFEKLIQINFDFVRRKREASAGMRHVKDVLVRRFVALRDEVIHPKPNMVDLIKDLGGPREVTLKILDAIEAELKMSFKSIVEDRSLPYVSSSDTILVFGRSSLVEYILLSRSRDPQCKPKRVIVIDSAPLFEGRQLAEKLSSAGIDVTYGLITACCTLMPKCTRVFMGASAVLQNGDMFGRCGMALVAACAKLFRKPVLCFSESYKFVPEVWVGNLAQNTKLADMRPAAEVHGSDTGTHSPLVYPTPPTLSPPQLRASGGWGTPARGADFLTRSGGGGAVPFSSSASGYLYDLTPASYIDMIICEMGCLHTSAIVAAIKDREGRDTSQLLNLVRG | soluble
14 | MGSDKIHHHHHHMDLQNKTLLITGIDEFIGLRAAELAITQGMKVRGLQTSTNKDKAQKLGAEVIVGSITDAAIAHKACQGVDIVLHTEQLTEEAGPIKNFREINVNGAVNMAKAAKNAGVKCFVHLSSVMVYGFNYSDRITESGTLSGDNNPYCQTKIEAETELLPLNSPPDFGLIIIRAGDIYGPGSIPWIVRPILMMRQKLFAYANEGQGVINHVYIDNLIDAIFLAVEKDAYGEIFNITDGEETSWKEYFMRLAAMEGASAPMSIPKDEMKLFLKLRNQGQKLFRKKADILPESVDFMTRPYAYSITKAQTILDYKPKVDLEQGLSQTKIWLQNTDIQKLVK | not soluble
15 | MSTSQPREQFLLISALGPNPMELTTLLCRACVESRCAVVSSRLTRHGEFSALVLQISGSWDALARLEGSLPALTKRGDITLSMTRSNAHVTRAQALPYVAYVSAVYRPDILNELCQFFIDHNIELENLTCDTYQAPHTNTTMLNATITVTLPAGTQISWLRDQFLDFADALNLDALIEPWRPQHP | not soluble
16 | HKPWRAEYAKSSRSSCKTCKSVINKENFRLGKLVQSTHFDGIMPMWNHASCILKKTKQIKSVDDVEGIESLRWEDQQKIRKYVESGAGSNTSTSTGTSTSS | soluble
17 | MGHHHHHHSHIAMRRDRGPKPALGGAGEVEPGGMAASPTGRPRRLQRYLQSGEFDQFRDFPIFESNFVQVTRLGEVANEVTMGVAASSPALELPDLLLLAGPAKENGHLQLFGLFPLKFVQLFVHDKSRCQLEVKLNTSRTFYLQLRAPLKTRDREFGQWVRLLYRLRFLSASAVPFTQE | not soluble
18 | MGSDKIHHHHHHMFSISHPGDFESLKIIVNEINKLRKINKKLKKESFEVYVGFPEFVGTGRATLYKPNFEDLAKQVNYAKKHNVRFEVVINASCIGGMHLTPKGISYINWIFSQLKNIGVDSVALSDPYLVDLAKNNGLEVNVSCIALVDSLDKALFWDEKEVYAITLDSSINRHFDIIQEIRENVSCKLKILVNEACLYKCPMRIQHFNFFSHANAQNIPALDDYYYNKCINLRIKKKELIIKSPFIRPEDLKYYKGLVDIFKISGRSHPIGWIKRVINAYLNERWDGNLMELLDCPRELEHFYYLDNRALDGAIEYWKSCNKLCSKCNFCKELAEKALKVKY | not soluble
19 | MKDMKTIEGIIVVTTPEIPGYKVVEVKGVARGGTVRATHIGRDIMALLRNLKGGEVKEYTEMMAEAREEALRRMALHAKELGANAVVNFRFATSNLGGSMAEIYAYGTAVVVERVEK | soluble
20 | MGSDKIHHHHHHMKQLVGIPESMLIPLIARAKEYENEKPIIKDALSKKIFDGLDDMYKNVTCDDMSQIGISIRTVIIDCVTKRLIKDNKDLIVVNIGCGLDTRFQRFNKEKISWIDLDVPESIEIRKTFFKESNSYKMISKSMLDYSWIDDVKNYKFFNSKSDILFIIEGVLMYFDESVMTQLLDTIIKKMGDHNLTFAIEFCSKTIANNTKRHQSVSKLSSQPVFKYGYNDLKKLNEILPNTIRVIHEYNYFDYYKNRWGLFGYCRFIPYLKKRLNNKIVLMKYKVPKRQRH | not soluble
21 | SKKGGKRFEIACYKNKVMSWRSGAEKDLDEVLQTNTVFVNVSKGQVAKKEDLSNAFGTDDLTEICKQILSKGELQVSDKERQSQLEQMFRDIATIVAEKCVNPETKRPYTVNLIERAMKDIHFSVKANKSTKQQALEVIKQLKESIQIQRAHMRLRFVLPAKDGKRLKEKLKPLIKAVENEDFDDQLEMVCLIDPGCFRDIDELIRCETKGKGTLEVLSLKDVEEGDEKLE | soluble
22 | MAHHHHHHMQPVKTAVGIRQGLRRCTQLPNKSFRILHVSPRQLTVSTGGDDILKEQRRLQQHGTCTRNNIFRHGVVCACNLLQGYTISIKTNSLIHHSLNFTGNTKTQASKDTHLSNKLYQTFRIIHLHPPIRINVHQWCIGIQNECMAVILHIHRPMFI | not soluble
23 | MGSIGSMGKPIEGFLVAAIQFPVPIVNSRKDIDHNIESIIRTLHATKAGYPGVELIIFPEYSTQGLNTAKWLSEEFLLDVPGKETELYAKACKEAKVYGVFSIMERNPDSNKNPYNTAIIIDPQGEIILKYRKLFPWNPIEPWYPGDLGMPVCEGPGGSKLAVCICHDGMIPELAREAAYKGCNVYIRISGYSTQVNDQWILTNRSNAWHNLMYTVSVNLAGYDNVFYYFGEGQICNFDGTTLVQGHRNPWEIVTGEIYPKMADNARLSWGLENNIYNLGHRGYVAKPGGEHDAGLTYIKDLAAGKYKLPWEDHMKIKDGSIYGYPTTGGRFGK | soluble
